Results taken from patent publication EP0980426B1 (Genentech, Inc., dated 2004).

B1: PXXP-HSCF peptide, 432GFNLRIGRPKGPRDPPAEWT451 (PTP HSCF) (peptide)
peptide: GFNLRIGRPKGPRDPPAEWT
notes: Synthetic peptide; also called C-terminally derived PTP HSCF peptide; peptide derived from the C-terminus of PTP HSCF

What follows are binders tested against T1, PSTPIP, full-length, with a C-terminal FLAG epitope (murine, UniProt P97814 1-415) (assay: peptide competition of GST-PST-rich+CTH PTP HSCF pull-down of in vitro translated PSTPIP).
T1 construct: In vitro transcribed/translated or expressed in COS cells from pRK.PIP.FLAG.C
T1 sequence: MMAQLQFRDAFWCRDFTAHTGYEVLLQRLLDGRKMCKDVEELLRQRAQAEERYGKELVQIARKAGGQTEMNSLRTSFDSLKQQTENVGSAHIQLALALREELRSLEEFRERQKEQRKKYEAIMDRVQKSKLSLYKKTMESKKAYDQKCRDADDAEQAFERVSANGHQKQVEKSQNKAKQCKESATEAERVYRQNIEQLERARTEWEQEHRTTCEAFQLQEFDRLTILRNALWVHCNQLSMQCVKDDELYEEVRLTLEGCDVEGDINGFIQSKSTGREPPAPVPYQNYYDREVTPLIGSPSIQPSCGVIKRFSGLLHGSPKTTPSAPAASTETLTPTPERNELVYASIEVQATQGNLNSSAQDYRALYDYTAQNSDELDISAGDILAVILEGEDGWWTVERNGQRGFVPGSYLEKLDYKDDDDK

| Binder | lowest concentration that blocks the interaction [nM] |
| --- | --- |
| B1 | ~800 |
| GFGNRFSKPKGPRNPPSAW (Synthetic peptide) [PXXP-PEP peptide, 782GFGNRFSKPKGPRNPPSAW800 (PTP PEP)] | ~800 |
| GFGNRCGKPKGPRDPPSEWT (Synthetic peptide) [PXXP-PEST peptide, 761GFGNRCGKPKGPRDPPSEWT780 (PTP PEST)] | ~800 |
